According to US20180264102A1:

Legend:
[1] = biological target: Hoc- Soc- bacteriophage T4 capsid (Soc binding sites) (bacteriophage T4) (UniProt P04535)
[2] = biological target: Hoc- Soc- bacteriophage T4 capsid (Soc binding sites) (bacteriophage T4) (UniProt P04535); assay: in vitro binding to Hoc- Soc- T4 phage, SDS-PAGE

Substance | Kd [1] [nM] | percent occupancy of the 870 Soc binding sites [1] [%] | ratio of antigen molecules to Soc binding sites at saturation (antigen molecules : Soc binding sites) [2]
F1mutV-Soc (66 kDa) recombinant protein with RB49 Soc | 298 | 75 | 20
Soc-PA (93 kDa) recombinant protein with RB49 Soc | 737 | 42 | 20
